B1: BGAm1823: parental murine anti-FGFR2b antibody; VH SEQ ID NO: 28, VL SEQ ID NO: 30 (antibody, V domains shown)
VH: EVQLQQSGAELVKPGASVKISCKASGYAFSIYWMNWVKQRPGKGLEWIGQIYPENGDTNYNGKFKGKATLTADKSSSTAYMHLSSLTSEDSAVYFCARGGFDYWGQGTTLTVSS
VL: NIVMTQSPASLSASVGETVTITCRASENIYSNLAWYQQKQGKSPQLLVYTATNLADGVPSRFSGSGSGTQFSLKINSLQPEDFGSYYCQHFYGILYTFGSGTRLEIK
modifications: Synthetic: VH AA; Synthetic: VL AA
B2: BGAh9179: humanized anti-FGFR2b IgG1 antibody from murine BGAm1371; VH SEQ ID NO: 21, VL SEQ ID NO: 22 (antibody, V domains shown)
VH: QVQLVQSGAEVKKPGASVKVSCKASGYTITDTYIHWVRQAPGQGLEWMGRIDPAEGNTMFASEFQGRVTMTADTSTSTVYMELSSLRSEDTAVYYCARSKIHYDYDEGFAYWGQGTLVTVSS
VL: DIVLTQSPDSLAVSLGERATINCRASESVDDYGYSFLHWYQQKPGQPPKLLIYRASNLESGVPDRFSGSGSGTDFTLTISSLQAEDVAVYYCQQSNQNPRTFGGGTKVEIK
modifications: Synthetic: VH AA; Synthetic: VL AA

What was measured:
human FGFR2b [1] = molecular target: T1, human FGFR2b (Homo sapiens, UniProt P21802); test: SPR affinity determination, human FGFR2b (Example 9); assay type: binding; details: for Kd: kd/ka
Description: (§1) For affinity determination, antibodies were captured by anti-human Fc antibodies, and used in the affinity assay based on surface plasmon resonance (SPR) technology. SPR signals were analyzed to calculate the association rates (ka) and dissociation rates (kd) by using the one-to-one Langmuir binding model (BIA Evaluation Software, GE Life Sciences). The equilibrium dissociation constant (KD) was calculated as the ratio of kd/ka. Rmax represents the maximal feasible SPR signal generated by an interaction between a ligand-analyte pair and is represented in response units (RU). BGAh9239 and BGA9179 show similar binding profiles to human FGFR2b and cyno FGFR2b, and are similar to their parental antibodies BGAm1823 and BGAm1371, respectively.

Cyno FGFR2b [2] = test: SPR affinity determination, cyno FGFR2b (Example 9); assay type: binding
Description: as §1

human FGFR2b [3] = molecular target: T1, human FGFR2b; test: FACS binding to native FGFR2b on Expi293 cells, human FGFR2b (Example 10); details: Expi293 cells overexpressing human FGFR2b
Description: (§2) To evaluate the binding activity of anti-FGFR2b antibodies to native FGFR2b on living cells, Expi293 cells were engineered to overexpress human FGFR2b, cyno FGFR2b, mouse FGFR2b, or human FGFR2c. Expi293 cells expressing antigens were seeded in 96-well plates, and were incubated with serially diluted anti-FGFR2b antibodies. Goat anti-human IgG [Alexa Fluor® 647] […] The change of mean fluorescent intensity (MFI) of humanized candidates BGAh9239 and BGAh9179 was measured by flow cytometry. EC50 values for dose-dependent binding to native human FGFR2b, cyno FGFR2b, mouse FGFR2b, and human FGFR2c were determined using sigmoidal dose-response curves of nonlinear fit from GraphPad Prism™.

Mouse FGFR2b = molecular target: T2, Mouse FGFR2b (Mus musculus, UniProt P21803); test: FACS binding on Expi293 cells, mouse FGFR2b (Example 10); details: Expi293 cells overexpressing mouse FGFR2b
T2 construct: expressed in transfected cells; host or cells: Expi293
Description: as §2

Human FGFR2c [4] = molecular target: T3, Human FGFR2c (Homo sapiens, UniProt P21802); test: FACS binding on Expi293 cells, human FGFR2c (Example 10); details: for Emax (MFI): Expi293 cells overexpressing human FGFR2c
Description: as §2

human FGFR2b [5] = molecular target: T1, human FGFR2b; test: ELISA binding to recombinant human FGFR2b (Example 11)
Cyno FGFR2b [6] = test: ELISA binding to recombinant cyno FGFR2b (Example 11)
Human FGFR2c [7] = molecular target: T3, Human FGFR2c; test: ELISA binding to recombinant human FGFR2c (Example 11); details: for Emax (A450): human FGFR2c; for binding to human FGFR2c: in words
BaF3_hFGFR2b OE cells = test: Ligand-induced proliferation inhibition assay in BaF3_hFGFR2b OE cells; assay type: cell-based; details: antibody 10 μg/ml, heparin 5 μg/ml, 72 hours
Description: The inhibition activity of antibody on ligand-induced cell proliferation was evaluated in an FGFR2b engineered BaF3 cell line system (BaF3_hFGFR2b OE). BaF3 cells are dependent on interleukin-3 (IL-3) for growth. The BaF3 system allows for testing of kinases and kinase inhibitors. Some protein kinases can render BaF3 cells to be independent of IL-3, whereas kinase inhibitors antagonize this effect. Cells were seeded in 96-well plates at 30,000 cells/well in RPMI-1640 medium containing 10% fetal bovine serum. Anti-FGFR2b antibodies at a concentration of 10 μg/ml were added to the assay plates. Recombinant human FGF7 or FGF10 protein (40 ng/ml) in the presence of heparin (5 μg/ml) was added to the assay plates. The plates were incubated at 37° C., 5% CO2, 95% humidity in an incubator for 72 hours. Following incubation, 50 μl Cell Titer Glo reagent was added to each well and the plates were mixed for 1 min and then incubated at RT for 10 min. Luminescence signals were detected and recorded.
The Ba/F3 system is used to investigate downstream oncogenic signaling pathways and the susceptibility of driver variants to therapeutics. Driver-addicted Ba/F3 cells die when the driver-engaged signaling pathway is inhibited, and this effect can be rescued by re-introduction of […].
FIGS. 6 and 7 show the results of Ba/F3 proliferation assays. The net growth on Ba/F3 cells overexpressing FGFR2b is reported after treatment with anti-FGFR2b antibodies of the present disclosure. Normal Ba/F3 cells die shortly after withdrawal of exogenous […]. […] Comparator BGA2311 binds at the N-terminus and is not considered to be a ligand blocker. Thus, BGAm1371 may partially block the FGFR2b signaling pathway, such as the signaling pathway mediated by FGF7.

[8] = tested on: phosphorylated FGFR in SNU-16 cells; test: Inhibition of FGFR2 signaling in SNU-16 cells (Western blot of pFGFR); assay type: cell-based; details: antibody 10 μg/ml, 2 hours; for FGF10-induced FGFR phosphorylation: FGF10 10 ng/ml
Description: Inhibition of the FGFR2 signaling pathway by the humanized antibodies was investigated. SNU-16 cells were grown in RPMI-1640 medium with 10% FBS, collected and washed twice with free medium and then seeded in 12-well plates at 1.5E6 cells/well in serum-free RPMI-1640. The plates were incubated at 37° C., 5% CO2, and 95% humidity in an incubator overnight. Anti-FGFR2b antibodies at a concentration of 10 μg/ml were added to the assay plates. Recombinant human FGF7 or FGF10 protein (10 ng/ml) in the presence of heparin (5 μg/ml) was added to the assay plates. The plates were incubated in a 37° C., 5% CO2, 95% humidity incubator for 2 hours. Following 2 hours incubation, cells were collected and washed twice with cold PBS. NP40 lysis buffer containing 1×PMSF and 1× Protease plus phosphatase inhibitors were added to the cell pellets. The mixture was pipetted up and down to suspend the pellet. The mixture was inverted gently and each placed for 10 minutes on ice, for a total of 30 minutes. The mixture was centrifuged at 12000× rpm for 10 minutes to pellet the cell debris. The supernatant was transferred to a new tube to quantify total protein concentration by BCA Kit. The protein samples were then split and stored at −80° C. for further Western blotting to detect the expression of pFGFR and total FGFR2.
Western blotting procedure: The completely thawed protein samples were mixed with 4×SDS loading buffer and were heated for 10 min at 37° C. Then the mixtures were centrifuged at ˜3500×rpm for 5 min. Equal amounts of proteins were loaded into an SDS-PAGE gel, whereafter proteins were transferred to PVDF membranes using iBlot. The membranes were then subjected to Western blotting analysis, focusing on phosphorylated FGFR and total FGFR2.

[9] = molecular target: T4, soluble human FGFR2b proteins (Homo sapiens, UniProt P21802); test: SPR binding kinetics (Biacore 8K, Example 5); details: room temperature
T4 construct: soluble human FGFR2b proteins (his tag, in-house generated); His tag; made in house
Description: The binding affinity and kinetics of purified anti-FGFR2b antibodies were determined by surface plasmon resonance (Biacore 8K, GE Life Sciences) at room temperature. Briefly, mouse anti-human IgG Fc antibody was immobilized via amine coupling onto a activated CM5 biosensor chip (Cat. No. BR100530, GE Life Sciences). Purified monoclonal antibody candidates were flowed over the chip surface and captured by anti-human IgG antibody. Then a serial dilution of soluble human FGFR2b proteins (his tag, in-house generated) were injected over the antibodies captured surface and changes in surface plasmon resonance signals were analyzed to calculate the association rates (kon) and dissociation rates (koff) by using the one-to-one Langmuir binding model (BIA Evaluation Software, GE Life Sciences). The equilibrium dissociation constant (KD) was calculated as the ratio koff/kon.

T2 sequence (P21803 22-707 isoform P21803-2 limits assumed): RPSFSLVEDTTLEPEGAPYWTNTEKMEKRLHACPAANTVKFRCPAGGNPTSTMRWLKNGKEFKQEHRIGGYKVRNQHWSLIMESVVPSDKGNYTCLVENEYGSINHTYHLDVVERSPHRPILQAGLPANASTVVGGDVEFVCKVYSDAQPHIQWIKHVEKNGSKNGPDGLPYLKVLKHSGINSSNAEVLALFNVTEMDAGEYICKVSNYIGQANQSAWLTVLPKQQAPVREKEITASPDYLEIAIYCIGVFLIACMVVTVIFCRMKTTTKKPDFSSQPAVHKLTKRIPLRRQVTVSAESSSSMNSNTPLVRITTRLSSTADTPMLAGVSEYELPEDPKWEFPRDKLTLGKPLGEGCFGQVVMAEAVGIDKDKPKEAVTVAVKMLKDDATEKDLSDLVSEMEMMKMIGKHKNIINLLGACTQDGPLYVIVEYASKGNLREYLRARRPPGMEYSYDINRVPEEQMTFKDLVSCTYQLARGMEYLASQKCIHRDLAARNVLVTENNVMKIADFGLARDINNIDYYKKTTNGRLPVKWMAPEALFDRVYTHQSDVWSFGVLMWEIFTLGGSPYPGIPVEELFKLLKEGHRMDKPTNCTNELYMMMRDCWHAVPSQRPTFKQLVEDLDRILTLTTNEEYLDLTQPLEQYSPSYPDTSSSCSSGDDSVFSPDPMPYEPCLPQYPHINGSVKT
T3 sequence (P21802 22-821): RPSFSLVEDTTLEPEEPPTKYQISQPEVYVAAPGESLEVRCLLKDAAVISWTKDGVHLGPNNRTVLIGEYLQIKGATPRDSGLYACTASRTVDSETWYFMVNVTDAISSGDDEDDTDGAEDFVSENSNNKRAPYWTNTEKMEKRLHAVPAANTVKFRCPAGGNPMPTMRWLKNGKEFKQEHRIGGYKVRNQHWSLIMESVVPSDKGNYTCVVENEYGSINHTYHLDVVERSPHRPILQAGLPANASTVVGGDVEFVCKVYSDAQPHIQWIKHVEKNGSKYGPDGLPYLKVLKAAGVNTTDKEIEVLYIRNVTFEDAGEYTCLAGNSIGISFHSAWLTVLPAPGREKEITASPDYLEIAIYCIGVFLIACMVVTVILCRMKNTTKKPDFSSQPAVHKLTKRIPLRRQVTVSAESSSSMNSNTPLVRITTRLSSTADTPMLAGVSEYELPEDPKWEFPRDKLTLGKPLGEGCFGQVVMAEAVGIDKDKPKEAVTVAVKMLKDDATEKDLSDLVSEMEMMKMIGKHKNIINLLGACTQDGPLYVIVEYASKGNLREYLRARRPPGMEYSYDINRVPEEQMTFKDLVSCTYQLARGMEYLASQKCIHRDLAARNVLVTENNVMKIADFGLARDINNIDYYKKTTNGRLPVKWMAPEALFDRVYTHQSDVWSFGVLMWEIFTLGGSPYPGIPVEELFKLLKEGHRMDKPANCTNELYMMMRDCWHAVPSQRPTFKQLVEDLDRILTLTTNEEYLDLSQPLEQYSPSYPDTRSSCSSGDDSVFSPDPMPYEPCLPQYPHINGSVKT
T1 sequence (P21802 22-822 isoform P21802-3 limits assumed): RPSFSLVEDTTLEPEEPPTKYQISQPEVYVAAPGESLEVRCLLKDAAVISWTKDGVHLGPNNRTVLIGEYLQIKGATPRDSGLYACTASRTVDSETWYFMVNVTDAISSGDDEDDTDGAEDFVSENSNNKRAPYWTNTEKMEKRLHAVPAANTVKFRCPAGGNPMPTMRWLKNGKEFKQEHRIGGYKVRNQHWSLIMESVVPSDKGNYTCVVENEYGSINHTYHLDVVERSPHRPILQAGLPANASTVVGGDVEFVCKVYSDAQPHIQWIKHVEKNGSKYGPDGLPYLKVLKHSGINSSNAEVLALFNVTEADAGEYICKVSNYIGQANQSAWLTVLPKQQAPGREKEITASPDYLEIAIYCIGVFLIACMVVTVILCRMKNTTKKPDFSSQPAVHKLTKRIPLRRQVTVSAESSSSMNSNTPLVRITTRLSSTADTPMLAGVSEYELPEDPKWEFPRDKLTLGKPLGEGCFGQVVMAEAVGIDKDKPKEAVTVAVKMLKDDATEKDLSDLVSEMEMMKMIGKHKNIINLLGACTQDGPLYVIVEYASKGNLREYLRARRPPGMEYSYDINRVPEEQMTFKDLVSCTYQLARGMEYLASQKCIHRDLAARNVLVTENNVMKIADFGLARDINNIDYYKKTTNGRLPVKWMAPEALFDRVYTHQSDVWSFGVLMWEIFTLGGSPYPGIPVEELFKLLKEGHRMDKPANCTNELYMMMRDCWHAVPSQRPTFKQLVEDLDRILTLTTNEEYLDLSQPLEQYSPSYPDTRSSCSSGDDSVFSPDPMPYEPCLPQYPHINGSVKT
T4 sequence (P21802 22-378 isoform P21802-3 limits assumed): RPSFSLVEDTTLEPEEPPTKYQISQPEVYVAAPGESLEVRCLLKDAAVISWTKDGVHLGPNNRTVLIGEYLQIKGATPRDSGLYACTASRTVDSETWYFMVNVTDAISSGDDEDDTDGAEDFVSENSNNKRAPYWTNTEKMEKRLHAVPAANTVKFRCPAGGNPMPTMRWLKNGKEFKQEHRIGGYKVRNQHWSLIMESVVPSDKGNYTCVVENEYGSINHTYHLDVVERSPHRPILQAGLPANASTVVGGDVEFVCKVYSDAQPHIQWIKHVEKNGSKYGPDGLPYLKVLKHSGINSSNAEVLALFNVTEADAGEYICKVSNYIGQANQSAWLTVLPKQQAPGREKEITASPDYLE

Molecule | Rmax (human FGFR2b [1]) [RU] | ka (human FGFR2b [1]) [M^−1S^−1] | kd (human FGFR2b [1]) [S^−1] | Kd (human FGFR2b [1]) [nM] | ka (Cyno FGFR2b [2]) [M^−1S^−1] | kd (Cyno FGFR2b [2]) [S^−1] | EC50 (human FGFR2b [3]) [nM] | Emax (MFI) (human FGFR2b [3]) | EC50 (Mouse FGFR2b) [nM] | Emax (MFI) (Mouse FGFR2b) | Emax (MFI) (Human FGFR2c [4]) | EC50 (human FGFR2b [5]) [nM] | Emax (A450) (human FGFR2b [5]) | Emax (A450) (Cyno FGFR2b [6]) | Emax (A450) (Human FGFR2c [7]) | binding to human FGFR2c (Human FGFR2c [7]) | FGF10-induced FGFR phosphorylation [8] | also measured
B1 | 85.7 | 7.63E+04 | 1.85E−03 | 24.2 | 7.35E+04 | 1.80E−03 | 2.12 | 3092441 | 3.37 | 5194795 | 22634 | 0.0442 | 2.952 | 2.996 | 0.116 | no detectable binding | down-regulation of phosphorylated FGFR | inhibition of FGF7-induced BaF3_hFGFR2b cell proliferation (BaF3_hFGFR2b OE cells; FGF7 40 ng/ml): potently inhibit; inhibition of FGF10-induced BaF3_hFGFR2b cell proliferation (BaF3_hFGFR2b OE cells; FGF10 40 ng/ml): potently inhibit; FGF7-induced FGFR phosphorylation ([8]; FGF7 10 ng/ml): down-regulation of phosphorylated FGFR
B2 | 38.3 | 8.16E+04 | 1.78E−03 | 21.8 | 8.37E+04 | 1.72E−03 | 3.29 | 2977577 | 4.25 | 5145011 | 21749 | 0.0518 | 2.993 | 2.953 | 0.086 | no detectable binding | little or no down-regulation | ka ([9]; antibody captured): 80600 M⁻¹ s⁻¹; kd ([9]; antibody captured): 0.00112 s⁻¹; Kd ([9]; koff/kon): 13.9 nM; binding to native human FGFR2c (Human FGFR2c [4]; living Expi293 cells, in words): no detectable binding
